Patent US20220056091A1

T1: Fc fused human IL-18BP isoform a (IL-18BPa) (human), O95998
T1 chain: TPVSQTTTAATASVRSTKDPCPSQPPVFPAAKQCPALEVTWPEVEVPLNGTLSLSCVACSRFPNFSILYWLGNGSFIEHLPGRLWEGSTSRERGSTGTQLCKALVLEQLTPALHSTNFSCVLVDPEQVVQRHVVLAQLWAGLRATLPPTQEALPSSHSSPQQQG

B1: Modified IL-18 polypeptide of SEQ ID NO: 2 (E06K, K53A, S55A), Q14116 37-193 (ligand)
chain: YFGKLKSKLSVIRNLNDQVLFIDQGNRPLFEDMTDSDCRDNAPRTIFIISMYADAQPRGMAVTISVKCEKISTLSCENKIISFKEMNPPDNIKDTKSDIIFFQRSVPGHDNKMQFESSSYEGYFLACEKERDLFKLILKKEDELGDRSIMFTVQNED
B2: Modified IL-18 polypeptide of SEQ ID NO: 3 (Y01G, F02A, E06K, M51G, K53A, D54A, S55A, T63A), Q14116 37-193 (ligand)
chain: GAGKLKSKLSVIRNLNDQVLFIDQGNRPLFEDMTDSDCRDNAPRTIFIISGYAAAQPRGMAVAISVKCEKISTLSCENKIISFKEMNPPDNIKDTKSDIIFFQRSVPGHDNKMQFESSSYEGYFLACEKERDLFKLILKKEDELGDRSIMFTVQNED
B3: Modified IL-18 polypeptide of SEQ ID NO: 17 (E06K, K53A, S55A, C38S, C68S, C76S, C127S, K70C), Q14116 37-193 (ligand)
chain: YFGKLKSKLSVIRNLNDQVLFIDQGNRPLFEDMTDSDSRDNAPRTIFIISMYADAQPRGMAVTISVKSECISTLSSENKIISFKEMNPPDNIKDTKSDIIFFQRSVPGHDNKMQFESSSYEGYFLASEKERDLFKLILKKEDELGDRSIMFTVQNED

Biological target: T1, Fc fused human IL-18BP isoform a …
Experiment: SPR, Fc-IL-18BPa captured, 1:1 model
Conditions: remark: other sources report otherwise

Row | Binder | Kd [µM] | koff [s⁻¹] | kon [M⁻¹ s⁻¹]
1 | B1 | 0.323 | 0.0154 | 47800
2 | B2 | > 1 |  | 
3 | B3 | 1 |  | 
